{"source": "a protein production outcome set (Wang et al. 2014)", "test": "label from the status in PepcDB records", "data": [{"sequence": "MFFEIALIGTTASGKTYIANTLAREFNAVVLSLDSLCVYKEINIASAKPSQDDLASIKYFGVNLLSVNEHFNVELFIREYQKAKEFALARNLPLIIVGGTGFYLKTMIDGLSEKTLESKSSLNNDEIYALLLNIDPNYKIEKNDTYRLKKWLGIYEQTREIPSEFLKRTQKTGVLKDIEIYELAWDKEILKKRIKTRTKEMLDNGLLDEAKILFSKFDHKLKALNSIGLKECKEYLDGEISFKELENLITIHTTQLAKRQRTFNKKFQSKALEFDKALATLRMKFSIEKLEHHHHHH", "values": [{"measurement": "protein production", "value": "failed"}]}, {"sequence": "MIRNASIINVFRVSLALIVIVASASSLSAFWLLEKSEQDAELINVAGSHRMKAYKFALQLSSGKKVQASETAQEIDTLWEQPLLHRHFVKAGGSIQQLAKDARTEWQRVHSEIAEQDFARFSQQQSNAIDNYVNQLDTLVGQLQEHSERRMETVRSSLALASFFIVAIFFFLLTVLKRKINQPLRHLLAVSKRLGQGDFTAKSKIDNEDEIGQLSRTMNKMSETVSYFYGGLERRVEQQTQELSRKNKVLSFLYDTARSIIVHSYDYNNYQQVIEKLYEIGEVNDIELCLLTEEGNRPFLQLQPRPSSHEPCEAGDCATCLKAGPGASVIEDKLVYRFVLKREDQNYGVLIVRCEQGQPLATWQQQLMSSTADQLALSQSLKSEEEQVRRLALMHERTVIARELHDSLAQALSYLKIQVTRLHKGIEKNDRATIDDVSNELREGLNSAYRQLRELLTTFRLKVDGSGLYSALQTTVKQLTEQSNMVVHLDYRLNNIPLVPHEEIHLLQIIREASQNAVNHSQGSEVHISLSQPSGQDVELKITDDGIGLPENAEKVNHYGLAIMQERSRNLGGEIKISRLESGGTEVCFTFTPDYLLQ", "values": [{"measurement": "protein production", "value": "failed"}]}, {"sequence": "MNLNEYKLLTFFNMKYKRKSKEEFLIKYQHDNTFRIMSLCLIILFLGVMSASVAHAESYKFVTKWGSYGNGAGQFHYPRAIVATSSGYIYVADSGNNRVQEFNSNGKFINQWSSTNDVSLGSVNGVAIDSSGDVYVADTNNRIVKFDKNGNFITKFGSYGSGNVQFKNARDICLDSSGNIYVADTGNNRIQKLDNNGNYLVQWGSYGSSNGQFKNPIDVALDSLDNVYVADKDNHCIKKFDSNGNYLMQFGNSGNGDGQFNNIISVFVDSSGNIYVSDRGNTRIQKFDSDGNYLTHWGSYGTNDGQFKNPEDIGVDSSGNVYVADADNNRIQKFAPVYPPVTNFVSNVTTGYAPLAVKFTDTSTGTPFSWTWNFGDGTFSTVKNPTHTYSKAGKYTVKLTATNEGGNSTAAKTNYITVKTTTVKPVAIFSASPTSGKAPLKVTFTDKSTGSPTKWKWNFGDGSKSFLQNPSHKYSKAGKYTVSLTVKNDKGSNTVTKTNYLTVVAKPVAAFSASPTSGKAPLKVTFTDKSTGSPTKWKWNFGDGTTSAKQNPIHKYSKAGKYKVTLTVANAAGINTVTKTNYITVIAKPAAAFSASPTSGKAPLKVTFSDKSTGTPTKWKWTFGDGSKSFLQNPTHKYSKAGKYKVILTVTNTAGSNTVTKTNYITVVAKPVAAFSASPTSGKAPLKVTFSDKSTGTPTKWKWNFGDGATSIKQNPVHKYSNVGSYTVKLTVTNAAGSNTKTISNYIILKSK", "values": [{"measurement": "protein production", "value": "failed"}]}, {"sequence": "MNQNWHATLIRHLLLLITVCLIGGLVSGYYGWSLAIGLALYLGWTLKQLLRLHDWLRNHQPDEAPPDGYGLWGEVFDSIYHLQRRDQRVRGRLQAVIDRVQESTAALRDAVIMLDSDGNLEWWNRAAETLLGFKTPQDGGQQVTNLVRHPLFKEYFEAENYLEPLEIPSPINDRMRVQLHITRYGNNEHLMLVRDVTRIHQLEQMRKDFVANVSHELRTPLTVITGYLETLLDNVEDVNPRWSRALQQMSQQGSRMQTLLNDLLLLAKLEATDYPSDNQPVAVDALLAAIKNDAQALSGPRNQRINLEAAPGVKLKGSESELRSAFSNLVFNAVKYTQDEGSIRIRWWADAQGAHLSVQDSGVGIDAKHLPRLTERFYRVDSSRASNTGGTGLGLAIVKHVLMRHRGKLEISSVPGHGSTFTCHFAPAQLANEKA", "values": [{"measurement": "protein production", "value": "failed"}]}, {"sequence": "MFKASHVLQGEDQTRSAAEFFPVISANYAVDEEAYLGELLQLADPGPDGIEAIRRNARALIETVRSRDNAVDTLDALLRQYSLDTQEGLMLMCLAEALLRVPDAATADALIRDKLSAADWQRHLGQSDNVLVNFAAWGLVMTGKVVNIDERTDGRAPSVISRLVQRSGEPVIRAAMNQAMKLMGKQFVLGRTISEALKNGRPCREQGYTYSFDMLGEAALTAADAEKYMADYRQAIDTVGAEPQVGPGPRPSISIKLSALHPRYEVAQRERVLSELFANVLELAVRARKLNVGITIDAEEADRLELSLELYEKLMRDPAIAGWGEFGLVIQAYSKRCLPVLVWLTLLGRELGARIPLRLVKGAYWDSEIKQCQVQGADGYPVYTRKEGTDTSYLACARYLLSEHTRGVIYPQFASHNAHTVTAILALADEARAAGGEERDFEFQRLHGMGDALYDTVIEKYRRNVRIYAPVGAHKDLLPYLVRRLLENGANSSFVHKLVDPRVPVETLIQHPVTQLRQFKTLANDRIPLPQAIFGAGRKNSQGINMNIQNQWNELELAYKPHLTRQWQAAPIVNGEKLSGPAHEVRCPYDLERLVGSVQYASAEQAGKALDVLQAAWPRWSATPVDERAGILERLADLLEAQRGELMALCTLEAGKSLQDGIDEIREAVDFCRYYAQQARQRLVREELRGPTGERNELFYEGRGIFACVSPWNFPLAIFLGQISAALVAGNTVLAKPAEQTSLIAARTVELMFEAGLPKDVIALLPGDGATLGGVFCRDARVAGVAFTGSTDTARIINRQLAEKPGAIATLIAETGGQNAMIVDSTALPEQVIKDAVQSAFTSAGQRCSALRVMYVQQDIAERVIELLKGAMAELKVGPTEVRVSDVGPVIDAEAKAGLEQHIAALKAAGKLIAETKVPGNLNGHFVAPVAFEISGIDELKKENFGPVLHVVRYAAQDLEKVVQAINATGFGLTMGVHSRNEETARRIEELARVGNLYINRNQIGAVVGVQPFGGHGLSGTGPKAGGPNYLLRFVSERTTSVNTTAVGGNA", "values": [{"measurement": "protein production", "value": "failed"}]}, {"sequence": "MSLPANQIKEPGKQFQPAKSLKEPSQESLPGNLLKEPSQESRILCPDPDIVVELNVGGQFYTTTMGTLMKHPGSKFSEILSRSAKHYKDAQGRFFIDRPGTYFGPLLDYLRTGQVPTEYIPEVYQEAKFYQIHPLVKLLEDKPQIFGEQVARMQFLMGVPNYRENLEVLLHLARAEAVAMRSSKVVVCVVRTEEDDAKCTEPLHILEAKKTPVVKFGPWKAGPVTEDFVYCLEKDIRAKGYTVASQRYHLSRDPYTCFWILVFTWW", "values": [{"measurement": "protein production", "value": "failed"}]}, {"sequence": "MVLLMAVSLSFAQMKNVKEAKSIASDVKPNFNQAEKLINEAIKNPETKDLPDTWDVAGFIQKRFIEEERDKKGVLKQPFDTLKAYNSILKMFEYYTKCDDLAQVPNEKGKIKNKYRKANASTILVERPNLINGGIQFFNLDKNKEALQFFATYVESASYPMLAEQNLAKTDTLLAQIAYYATLAADRVGDKDAIIKYAPAALDDKDGGKFAMQLMADAYKAKGDTAAWVKSLEEGILKFPGNDYFFANLVDYYTSSNQASKAMEFADRMLSTDANNKLYLYVKAYLYHNMKEYDNAIEFYKKAIAADPEYAEAYSNVGLVYLMKAQDYADKATTDINDPKYAEAQATVKKFYEEAKPFYEKARALKPDQKDLWLQGLYRVYYNLNMGPEFEEIDKMMK", "values": [{"measurement": "protein production", "value": "failed"}]}, {"sequence": "MSGEGNLGKDHEEENEAPLPGFRFHPTDEELLGYYLRRKVENKTIKLELIKQIDIYKYDPWDLPRVSSVGEKEWYFFCMRGRKYRNSVRPNRVTGSGFWKATGIDKPVYSNLDCVGLKKSLVYYLGSAGKGTKTDWMMHEFRLPSTTKTDSPAQQAEVWTLCRIFKRVTSQRNPTILPPNRKPVITLTDTCSKTSSLDSDHTSHRTVDSMSHEPPLPQPQNPYWNQHIVGFNQPTYTGNDNNLLMSFWNGNGGDFIGDSASWDELRSVIDGNTKP", "values": [{"measurement": "protein production", "value": "failed"}]}, {"sequence": "MSPVLLFILGVVFVAIGVAVSIALHEVGHLVPAKLFKVRVTKYMIGFGPTLWSKKKGETEYGFKALPLGGYVSMIGMYPPNKEDGAVRPSSTGMFQTLATEARSMAHEEVGPGDENRVFYKLPVWKKIIVMLGGPAMNMLIGLILLAVLLMGFGMATATTTIADVSKCQVAAGETVDPDSADCKLTPAAAAGLQPNDTITSFDGKAVTSWDELTSWIRASAGRDVPITVERNGSTVETTVTPVLSSRPVVGADGRPEQDADGVLKYQEVGFLGIGAQSELVPQPASAVLPMAGENIKQISGVIFNLPARVVGVAKAAFSEEPRDPNGPISVVGVGRVAGEVAAMEQVPMQARIGTLIGLLAGLNFALAIFNLIPLLPLDGGHVAGALYEGARRRVAKLLGKPDPGAFDIAKLLPATYVVAALLMAMGALLIYADIVKPVNIFG", "values": [{"measurement": "protein production", "value": "failed"}]}, {"sequence": "MTPPEIDFFPDFIADPHRLFNHLKDSVLWDERMRARKTASFGAPYDYSQITYPAVPMPEALEQLCGPIEQLLGFRPNNCLLNCYPDGHSSMGFHSDANEQLVTGTGVVIVSLGHARAMVFRHKESGATFDYSLASGSLLHMSDELQKHWLHAIPKAPDAGERISLSFRQLKTGLEHHHHHH", "values": [{"measurement": "protein production", "value": "not failed"}]}, {"sequence": "MRVVLQMAPPIASGRGGQGLITCPGHKERRVASLNRIAMARSSRRMIKDLGPEGLEVAEISGKWGQQFPFRSYRRFIYPEYDICAGPYCDAAGEIEQFDLILANQVWEHLDRPYEATLNVLEMLRTGGHFWLAVPFFVPFHAAPMDNSRWSARGLRNFLIECGFAEEEIRAEQWGNRHAALRNLERPWPPVYDPETDPLDNDPDFPICAWAIARKT", "values": [{"measurement": "protein production", "value": "failed"}]}, {"sequence": "MSTETIEIFNNSDEWANQLKHALSKGENLALLHGLTPDILDRIYAYAFDYHEKGNITDAEIYYKFLCIYAFENHEYLKDFASVCQPKKKYQQAYDLYKLSYNYFPYDDYSVIYRMGQCQIGAKNIDNAMQCFYHIINNCEDDSVKSKAQAYIELLNDNSEDNGLEHHHHHH", "values": [{"measurement": "protein production", "value": "failed"}]}, {"sequence": "MVIRVTERRVKLASIISYDFLFLVLLSGLLNLIITIFRERLLYVLSSFFQYIVSNPSVALGDALGFIFVLQALLLGLFIGGIVILSISFTINLTRIRSEYEEGVPLSTILRSRIITSSRLGIIANWISERSKRYINASADLESPTEVGVRYVAYFLVSLLVVIPVSLALSIALLSPLPFLLIFFPLTFIFYPEQKYKSRAREIRDDIQDEIPFFVTLITIINASGTTIYEGMRKILQFPIFKAMKKEALLIIRDIEFFGKSPLDALEHRSRLTLNRDYSWFLAGYSSIIRSGGDIEAYLFQKAREFLNWLQFRWRFYSERTSFLGELIVILFLIFPMFLIALAFFTSGAVISFLLIIPILFGTILYTITANNRPRYMDSIGLTKLQLLIGFIAALLTAGVIEIFLDEIYYAIGLGLLSFSLASTIFMYNQIREINDVENSLPQFLRDITEFRKIGYDLSRAIKTLAEEKRYRREFNRVLNEITKQDSMGIPITRAKINTRSWLGKFSLTTVQILIESGAVRPDLLEYLTEFTLNFIQSKKEAFSRMRAYQVLGILTPLLLIATILIAIVIIDSFTIVTLPTNTVGLPQFPNIISQFILSPVILAEMFIFILMSTFAIGLLVTKALYGTVQYMIMPAIGLTLAVLSIHFFSVIEPIILKFFSI", "values": [{"measurement": "protein production", "value": "failed"}]}, {"sequence": "HQEIKGRKTLATPAVRRLAMENNIKLSEVVGSGKDGRILKEDILNYLEKQTGAILPP", "values": [{"measurement": "protein production", "value": "not failed"}]}, {"sequence": "NILFGISDTQECYNAIKFAVKLAHSLKEVRFTLLHVSMEVFIYSESGMMDYGQTEALEEEKAKALLKQFEDAFKKENIECESVLKSGDLIDVVLDMAKDYDLLLIGASESNLLYRLFISHQNSLVEQSSIPVVIAK", "values": [{"measurement": "protein production", "value": "failed"}]}]}
